Assay results taken from US20260248947A1, “Methods of Treating Cancer Using Anti-HER2 Antibody-Drug Conjugates and HER2 Kinase Inhibitors” (Seagen Inc., priority 2023, published 2026).

Columns and labels:
[1] = system: panel of breast cancer cell lines spanning a range of HER2 expression; test: 96-hour CellTiterGlo cytotoxicity assay of DV, T-DM1 and T-DXd; format: cell-based
Protocol: The following cell lines were cultured in the vendor-recommended conditions: breast cancer cell lines SK-BR-3, BT-474, UACC-893, HCC-202, JIMT-1, and BT-483. Cytotoxicity assays were performed using CellTiter-Glo (CTG) Luminescent Cell Viability assay (Promega Corporation) as per the manufacturer's protocol. Cells were seeded in 96-well plates and incubated overnight as previously described (1). […] Cells were then incubated at 37° C. in 5% CO2, and cell viability was measured at 96 hours after dosing.
(§1) Internalization of anti-HER2 ADCs DV, T-DM1, and T-DXd (two HER2-targeting ADCs with trastuzumab as a backbone) was also tested in breast cancer cell lines SK-BR-3, HCC-202, and BT-483.

[2] = target: HER2 (Homo sapiens, UniProt P04626); test: Internalization of anti-HER2 ADCs DV, T-DM1 and T-DXd; format: cell-based; set-up: endogenous in cells; host or cells: SK-BR-3, BT-474, HCC-202, EFM-192C, BT-483, CAMA-1, NCI-N87, OE19, RERF-GC-1B; details: results considered preliminary
Protocol: The internalization experiments were conducted by detecting an antibody-bound pH sensitive probe using automated time-lapse microscopy. Briefly, breast cancer cell lines SK-BR-3, BT-474, HCC-202, EFM-192C, BT-483, and CAMA-1 and gastric cancer cell lines NCI-N87, OE19, and RERF-GC-1B were seeded in 96-well flat clear-bottom black tissue culture-treated microplates (Corning, cat #3603). Cells were plated at 1.5×10^4-2.5×10^4 cells/200 μL/well in growth medium and allowed to adhere overnight at 37° C. Disitamab, trastuzumab, and isotype control antibody (human IgG) were labeled with IncuCyte Fabfluor-pH Red Antibody Labeling Reagent (Essen Bioscience, cat #4722) according to the manufacturer's protocol. Volumes of the test antibodies, Fabfluor reagent and medium required were calculated at 2× the final assay concentration, and the Fabfluor reagent was added at a molar ratio of 1:3 to the antibody. Fabfluor dye fluoresces only upon exposure to an acidified compartment, namely endocytic vesicles and lysosomes, signifying internalization and intracellular processing of the ADC. Antibody and Fabfluor were mixed gently and incubated at 37° C. for 15 minutes. Media containing Fabfluor-labeled disitamab or trastuzumab ([…] final concentration) was added to cells. The plates were arranged on microplate trays in the IncuCyte SX3 system (Essen Bioscience), and scans were acquired using the Standard protocol. Phase data and red channel data (acquisition time set to 400 ms) were collected, with 4 images per well every 30 minutes for the first 6 hours and every 2 hours after that for up to 40 hours with the objective set at 10×. Quantification of fluorescence signal intensity was performed using the IncuCyte software analysis tool.
as §1

disitamab vedotin [DV]
IC50 compared with the IC50 for T-DM1 and T-DXd ([1]; for each cell line of the panel): lower | in vitro cytotoxic activity against the panel of breast cancer cell lines ([1]; variable HER2 expression, including HER2-low range, 0.01-10,000 ng/mL): in vitro cytotoxic activity | internalization compared to T-DM1 and T-DXd ([2]; BT-483): enhanced internalization | internalization compared to T-DM1 and T-DXd ([2]; HCC-202): enhanced internalization | internalization compared to T-DM1 and T-DXd ([2]; SK-BR-3): enhanced internalization
